Values belong to the substance of their own block, whether it stands above or below them.
Tests used:
Test in all cases: split reporter (BiFC, NanoBiT); mCherry BiFC (Nm and Cm fusions) in Sf9 cells transfected with a pair of plasmids (2 ug/well each); 36 h p.t.; epifluorescence microscopy; percentage of fluorescent cells in each field
[1] = target: Hse1 (BiFC fusion) (S. frugiperda)
[2] = target: Vps27 (BiFC fusion) (S. frugiperda)
[3] = target: Vps25 (BiFC fusion) (S. frugiperda)
[4] = target: Vps36 (BiFC fusion) (S. frugiperda)

- percentage of fluorescent cells in BiFC [1]: 5%
Substance: Chm7 (BiFC fusion) (natural protein)

- percentage of fluorescent cells in BiFC [2]: 5%
- percentage of fluorescent cells in BiFC [3]: 5%
Substance: Tsg101 (BiFC fusion) (natural protein)

- percentage of fluorescent cells in BiFC [1]: 5%
Substance: Vps2B (BiFC fusion) (natural protein)

- percentage of fluorescent cells in BiFC [4]: 5%
Substance: Vps28 (BiFC fusion) (natural protein)
